Target: human alpha-thrombin (human, UniProt P00734;P00734 328-363;364-622)
Experiment: centrifugation separation, free thrombin by fibrinogen-Au NP assay, Scatchard; graphene oxide carrier; 100 uM BSA; PBS (1X: 137 mM NaCl, 2.7 mM KCl, 10 mM Na2HPO4, 1.8 mM KH2PO4, pH 7.4) with 100 uM BSA, 30 min; 100 pM Supra-TBA15/29, thrombin 0-1 nM; temperature not stated

B1: Supra-TBA15/29-GO (sTBA15 + sTBA29 network on graphene oxide) (mixed)
DNA 1: AAAAAAAAAAAAAAAAAAAACGACCTGTACGACTCTTTTTTCAGGGTTGGTGTGGTTGGCTGATTTTTATCTTCACGAGCACT
DNA 2: GAGTCGTACAGGTCGTTTTTAGTCCGTGGTAGGGCAGGTTGGGGTGACTTTTTTAGTGCTCGTGAAGATAAAAAAAAAAAAAAAAAAAA
modifications: adsorbed on graphene oxide through A20 tails (40 ug/mL GO, 60 C)
- Kd: 19 pM

— paper PMC6532589
